Common to all, as to test: ITC
The target in one assay is FEZ1_(92–198) (human) (UniProt Q99689).
The target in a further assay is FEZ1_(178–188) (human).
The target of assay [1] is FEZ1_(92–198 182EA) (human) (UniProt Q99689).

The Kd is a measure of binding affinity in units of concentration. Higher therefore signals lower affinity. For the substance “Disulfide-crosslinked CA (A14C/E45C) hexamer (complex)”, in the assay with FEZ1_(92–198) (human), the equilibrium dissociation constant (Kd) was determined as 300 nM and the stoichiometry N (CA hexamer to FEZ1) stood at 1.3. In the assay with FEZ1_(178–188) (human), the Kd was found to be 180 nM and the stoichiometry N (CA hexamer to FEZ1 (178–188)) was found to be 1. In assay [1], this substance displayed a stoichiometry N (CA hexamer to FEZ1) of 1.6.

Source of the values: paper PMC6736649.
